Test [1] deals with T1, matrix metalloproteinase-9 (MMP-9) (UniProt P14780 107-707, limits assumed). The experiment in a line: SPR (BiaCore-X, CM-5 chip); KA = ka/kd. For orientation: Surface plasmon resonance follows binding to a sensor surface in real time, without labels.
Test [2] concerns the target T1, matrix metalloproteinase-9 (MMP-9). Briefly: SPR (BiaCore-X, CM-5 chip); MMP-9 coupled to the chip, SEQ ID NO:5 polypeptide in PBS flowed over.
Test [3] has as its target T2, matrix metalloproteinase-1 (MMP-1) (UniProt P03956 100-469, limits assumed).
T2 sequence (looked up): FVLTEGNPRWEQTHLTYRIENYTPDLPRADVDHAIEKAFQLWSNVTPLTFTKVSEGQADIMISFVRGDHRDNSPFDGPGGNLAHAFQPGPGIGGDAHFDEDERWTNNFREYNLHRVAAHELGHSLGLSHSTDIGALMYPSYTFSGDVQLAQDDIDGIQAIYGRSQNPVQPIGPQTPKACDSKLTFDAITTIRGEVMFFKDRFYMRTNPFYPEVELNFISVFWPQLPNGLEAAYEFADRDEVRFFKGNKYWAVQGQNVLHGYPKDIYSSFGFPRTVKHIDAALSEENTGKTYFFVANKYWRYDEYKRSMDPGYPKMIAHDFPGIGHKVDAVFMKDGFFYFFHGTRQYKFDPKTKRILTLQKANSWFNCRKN
Briefly: fluoresceinated collagen hydrolysis assay, Dixon plot, competitive inhibition assumed; target MMP-1. Here is the method:
(§1) Inhibition of MMPs: The assay employed measured the enzymatic hydrolysis of fluoresceinated collagen by MMP-9 or other matrix metalloproteinases as a function of time. Fluoresceinated collagen at a concentration of 5 μM was added to reaction buffer (50 mM Tris-HCl (pH 7.6), 150 mM NaCl, 5 mM CaCl_2, 0.1 mM NaN_3) and was placed into a Spectrosil quartz fluorimeter cuvette. MMP at a concentration of 0.1 μM was mixed with varying amounts of polypeptide inhibitor (SEQ ID NO:5 or SEQ ID NO:20) and incubated at 25° C. for 10 minutes in order to effect binding. The protein mixture was added to the collagen substrate, and mixed. Fluorescence emission intensity at 520 nm was measured as a function of time using an excitation wavelength of 495 nm in a Shimadzu RF5301 fluorimeter. The fluorescein release assay was used to determine the inhibitory constant (K_i) of the protein based matrix metalloproteinase inhibitor ([I]) according to Segel (1993) by using Dixon plots (1/v vs. [I]), where: […]

Test [4] concerns the target T1, matrix metalloproteinase-9 (MMP-9). The experiment in a line: fluoresceinated collagen hydrolysis assay, Dixon plot, competitive inhibition assumed; target MMP-9. Here is the method:
as §1

T1 sequence (P14780 107-707 limits assumed): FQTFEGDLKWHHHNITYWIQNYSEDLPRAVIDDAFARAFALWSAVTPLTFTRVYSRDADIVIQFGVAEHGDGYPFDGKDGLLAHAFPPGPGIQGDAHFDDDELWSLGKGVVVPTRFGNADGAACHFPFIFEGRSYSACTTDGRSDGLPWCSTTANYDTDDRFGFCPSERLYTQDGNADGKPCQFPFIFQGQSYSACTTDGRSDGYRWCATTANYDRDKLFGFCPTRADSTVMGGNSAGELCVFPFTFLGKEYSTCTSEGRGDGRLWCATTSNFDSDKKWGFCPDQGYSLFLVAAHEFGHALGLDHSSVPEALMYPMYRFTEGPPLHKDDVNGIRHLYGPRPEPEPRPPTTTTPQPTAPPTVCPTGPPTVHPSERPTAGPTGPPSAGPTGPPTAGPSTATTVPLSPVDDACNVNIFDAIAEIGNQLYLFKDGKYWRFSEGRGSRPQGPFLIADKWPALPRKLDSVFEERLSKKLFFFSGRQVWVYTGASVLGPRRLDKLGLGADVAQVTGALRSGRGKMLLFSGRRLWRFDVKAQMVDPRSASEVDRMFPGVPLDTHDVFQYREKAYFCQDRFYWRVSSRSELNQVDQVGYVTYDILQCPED

B1: SEQ ID NO:5 polypeptide (DST; Delta Synthetic TIMP), purified Fraction IV protein (designed binder)
chain: CSCSPVHPQQAFSNADVVIRAKAVSEKEVDSGNDIYGNPIKRIQYEIKQIKMFKGPEKDIEFIYTAPSSAVCGVSLDVGGKKEYCIAGKAEGDGKMHITLCDFICPW
notes: It was expressed in E. coli as an MBP fusion and cleaved with Factor Xa; It is monomeric by gel filtration; Three disulfide bonds; also called DST protein
For the molecule B1, the Ka in test [1] worked out at 1.5e+08 M⁻¹. Moreover, in test [2], the koff (in general, the first-order rate constant of dissociation) was found to be 0.0013 s⁻¹ and the kon – broadly, a measure of how fast the partners come together – is 200000 M⁻¹ s⁻¹. The affinity in test [3], expressed as Ki, was 12 nM. In test [4], the inhibition constant Ki (commonly the equilibrium dissociation constant of an inhibitor or competing ligand from its target) turned out to be 16 nM.
